Molecular target: T1, recombinant UBE2D1-His (UniProt P51668 1-147)
T1 construct: UBE2D1 (UbcH5a), E2 ubiquitin conjugating enzyme; The methods of the pull-down call it UBE2D-His; also called UBE2D-His; source: E. coli, recombinant (pET29a (+) or pGEX4T1 vector); purification not described; not shown: His, C-terminal, kept
Test: pull-down; GST-RING (8 ug) on Glutathione Sepharose beads with recombinant UBE2D-His (5 ug) or immunoprecipitated FLAG-CNPY2 (5 or 15 ug), 4 C, 30 min; 50 mM Tris-HCl pH 7.5, 150 mM NaCl, 5 mM EDTA, 0.5% NP40; immunoblotting
Details: both partners purified

T1 sequence (P51668 whole entry): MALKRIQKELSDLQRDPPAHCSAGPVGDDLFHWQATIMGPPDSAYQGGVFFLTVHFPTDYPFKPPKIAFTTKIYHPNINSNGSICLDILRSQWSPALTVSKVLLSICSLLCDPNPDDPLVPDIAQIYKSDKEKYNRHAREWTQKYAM

binding result: binds
B1: recombinant GST-fused RING domain of MYLIP (344-445 a.a.) (domain or fragment, UniProt Q8WY64 344-445, looked up)
chain: QSPSHSPLKSSESSMNCSSCEGLSCQQTRVLQEKLRKLKEAMLCMVCCEEEINSTFCPCGHTVCCESCAAQLQSCPVCRSRVEHVQHVYLPTHTSLLNLTVI
notes: MYLIP, RING domain, residues 344-445; Held on Glutathione Sepharose beads in the pull-down; pGEX4T1 vector); also called GST-RING; MYLIP RING; source: E. coli BL21 (DE3), purified (Glutathione Sepharose, eluted with 40 mM reduced glutathione); not shown: GST, N-terminal, kept

— article PMC5915145, “CNPY2 inhibits MYLIP-mediated AR protein degradation in prostate cancer cells” (Oncotarget, 2018)
